Laboratory results reported in patent US6624139B1, “Hypersensitive response elicitor-induced stress resistance” (Eden Bioscience Corporation, priority 1998, dated 2003).
Residue numbers refer to the chain shown, from its start. Values joined by “and” are separate entries in the source; they are usually repeats but may differ in a detail not shown here. Equal entries are not always repeated.

Key:
Aphids (Aphids gossypii) = experiment: Aphid count per leaf on cotton, field trial; format: in vivo
Excerpt: (§1) Aphids (Aphids gossypii) infect cotton during the entire growth season. The damage of aphid infection ranges from honeydew deposit that contaminates the lint and reduces crop value to defoliation that reduces or destroys crops. To protect plants from aphid infection, cotton is usually sprayed with insecticides, for example Asana XL when the infection pressure is not very high, and Admire when the infestation pressure is high. The effect of a hypersensitive response elicitor on aphids in cotton was studied by a trial involving a randomized complete block design. This involved treatment with Erwinia amylovora hypersensitive response elicitor (i.e. HP-100™) at 20, 60, and 80 ppm and a chemical insecticide, Asana XL, at 8 oz./ac. Each treatment involved foliar application beginning at cotyledon to three true leaves and thereafter at 14 day intervals using a backpack sprayer. Aphid counts and overall growth of the cotton were made immediately prior to spray application at 14, 28, 35, and 42 days after the first treatment (“DAT 1”). Twenty-five randomly selected leaves per plot were collected at the first three sampling dates and the leaves per plot at the final sampling date.

cotton = experiment: Insecticide stress tolerance of cotton (defoliation, formed cotton balls); format: in vivo
Excerpt: as §1
2. Hypersensitive response elicitor-treated cotton was more resistant to the damage caused by Pravado (Admire) and Asana. […]

cucumber = experiment: Cucumber field trial under drought (survival, flowering, yield); format: in vivo; parameters: Yield/Replicate: unit not given beside the values; details: for Yield summed over the three replicates: control 39.3; for Yield/Replicate / kg/plant: replicates I-III; for % of the Yield Increase: versus control; for kg/plant: cucumber fruit yield
Method: A cucumber field trial was set up to test the effect of Erwinia amylovora hypersensitive response elicitor on disease control, tolerance to drought stress, and yield. Three different rates were tested, there at 15, 30, and 60 μg/ml. In addition to hypersensitive response elicitor treatment, there was an untreated control. Each treatment contained three replicate plots. When the first true leaf emerges, hypersensitive response elicitor was sprayed with a back bag sprayer. The second spray was applied ten days after the first spray. The third application was right after the recovery of cucumber seedlings after the transplanting to the field. Individual treatment was randomly assigned in the field.
When the first true leaf emerged (Day 0), a first application was sprayed. Usually cucumber seedlings are transplanted when seedlings show two true leaves. It has been known that the recovery rate after the transplanting is closely related to the size of the seedlings. Because of the drought, the seedlings were maintained in the nursery for an extra ten days and the second spray was applied on Day 10. Two days after the second spray, the plants were transplanted into fields and covered with plastic sheets. The plants had 4-5 true leaves.

pepper = experiment: Pepper tolerance to SENCOR herbicide damage; format: in vivo
Excerpt: Pepper seedlings were drenched with hypersensitive response elicitor at 20 ppm seven days before transplanting, sprayed seven days after the transplanting, and then, sprayed every fourteen days. Standard chemicals, Brave, Maneb, Kocide, and Admire, were used for the rest of the treatment. […] The pepper field was applied with the herbicide SENCOR which is not labeled for pepper. This herbicide is known to cause severe foliar damage to pepper in chemically-treated plants but not with hypersensitive response elicitor-treated plants.
The difference between the adverse effect of the herbicide on the hypersensitive response elicitor and non-hypersensitive response elicitor treated plants is dramatic. […] In contrast, 53 out of the 60 chemically-treated pepper plants had severe damage, 40-57% of the leaves were damaged, and 20 plants were dead. The ability of hypersensitive response elicitors to help crops withstand the phytotoxic effects of a herbicide is very important benefit to in agricultural industry.

[1] = cited from earlier work

B1: HP-1000: Erwinia amylovora hypersensitive response elicitor protein applied to plants by foliar spray or drench (protein, UniProt Q01099 1-403, looked up)
Harpin HrpN: MSLNTSGLGASTMQISIGGAGGNNGLLGTSRQNAGLGGNSALGLGGGNQNDTVNQLAGLLTGMMMMMSMMGGGGLMGGGLGGGLGNGLGGSGGLGEGLSNALNDMLGGSLNTLGSKGGNNTTSTTNSPLDQALGINSTSQNDDSTSGTDSTSDSSDPMQQLLKMFSEIMQSLFGDGQDGTQGSSSGGKQPTEGEQNAYKKGVTDALSGLMGNGLSQLLGNGGLGGGQGGNAGTGLDGSSLGGKGLQNLSGPVDYQQLGNAVGTGIGMKAGIQALNDIGTHSDSSTRSFVNKGDRAMAKEIGQFMDQYPEVFGKPQYQKGPGQEVKTDDKSWAKALSKPDDDGMTPASMEQFNKAKGMIKSAMAGDTGNGNLQARGAGGSSLGIDAMMAGDAINNMALGKLGAA
**Q.** For B1, which “Number of aphids per leaf” value (Aphids (Aphids gossypii); 20 μg/ml a.i., 1 spray, 14 DAT 1) is on record?
**A.** The value was 0.2 a per leaf.

**Q.** And the “Number of aphids per leaf” value (Aphids (Aphids gossypii); 20 μg/ml a.i., 2 sprays, 28 DAT 1)?
**A.** The value was 7.8 b per leaf.

**Q.** And the “Number of aphids per leaf” value (Aphids (Aphids gossypii); 20 μg/ml a.i., 3 sprays, 35 DAT 1)?
**A.** Its value is 22.9 b per leaf.

**Q.** What about the “Number of aphids per leaf” value (Aphids (Aphids gossypii); 20 μg/ml a.i., 4 sprays, 42 DAT 1) of the same molecule?
**A.** Its value is 322.1 a per leaf.

**Q.** And the “Number of aphids per leaf” value (Aphids (Aphids gossypii); 60 μg/ml a.i., 1 spray, 14 DAT 1)?
**A.** The value was 0.1 a per leaf.

**Q.** What about the “Number of aphids per leaf” value (Aphids (Aphids gossypii); 60 μg/ml a.i., 2 sprays, 28 DAT 1) of the same molecule?
**A.** The value was 4.9 b per leaf.

**Q.** What about the “Number of aphids per leaf” value (Aphids (Aphids gossypii); 60 μg/ml a.i., 3 sprays, 35 DAT 1) of the same molecule?
**A.** Its value is 34.6 b per leaf.

**Q.** And the “Number of aphids per leaf” value (Aphids (Aphids gossypii); 60 μg/ml a.i., 4 sprays, 42 DAT 1)?
**A.** The value was 168.3 a per leaf.

**Q.** What about the “Number of aphids per leaf” value (Aphids (Aphids gossypii); 80 μg/ml a.i., 1 spray, 14 DAT 1) of the same molecule?
**A.** The value was 0.0 a per leaf.

**Q.** What about the “Number of aphids per leaf” value (Aphids (Aphids gossypii); 80 μg/ml a.i., 2 sprays, 28 DAT 1) of the same molecule?
**A.** Its value is 2.7 b per leaf.

**Q.** What about the “Number of aphids per leaf” value (Aphids (Aphids gossypii); 80 μg/ml a.i., 3 sprays, 35 DAT 1) of the same molecule?
**A.** The value was 25.8 b per leaf.

**Q.** And the “Number of aphids per leaf” value (Aphids (Aphids gossypii); 80 μg/ml a.i., 4 sprays, 42 DAT 1)?
**A.** The value was 510.2 a per leaf.

**Q.** What about the “Defoliation of cotton after second chemical spraying” value (cotton; after Pravado (Admire) applied to all plots, elicitor especially at 80 ppm) of the same molecule?
**A.** Its value is “no defoliation”.

**Q.** And the “No. balls/10 plants/replicate” value (cotton; formed cotton balls on ten plants in each of four replicates, after insecticide stress, elicitor at 80 ppm)?
**A.** Its value is 35.

**Q.** What about the “Yield summed over the three replicates” value (cucumber; 15 μg/ml) of the same molecule?
**A.** The value was 103.8.

**Q.** What about the Yield/Replicate (cucumber; 15 μg/ml, listed as HP 15) of the same molecule?
**A.** Its Yield/Replicate is 37.5 and 30.0 and 36.3.

**Q.** What about the “% of the Yield Increase” value (cucumber; 15 μg/ml) of the same molecule?
**A.** The value was 241%.

**Q.** What about the “Yield summed over the three replicates” value (cucumber; 30 μg/ml) of the same molecule?
**A.** Its value is 133.2.

**Q.** And the Yield/Replicate (cucumber; 30 μg/ml, listed as HP 30)?
**A.** Its Yield/Replicate is 46.2 and 42.9 and 44.1.

**Q.** And the “% of the Yield Increase” value (cucumber; 30 μg/ml)?
**A.** The value was 339%.

**Q.** And the “Final yield relative to control plants” value (cucumber; 30 ppm)?
**A.** The value was “three times greater yield”.

**Q.** And the kg/plant (cucumber; 15 μg/ml, listed as HP 15)?
**A.** The kg/plant was 1.25 kg/plant and 1.00 kg/plant and 1.21 kg/plant.

**Q.** What about the kg/plant (cucumber; 30 μg/ml, listed as HP 30) of the same molecule?
**A.** The kg/plant was 1.54 kg/plant and 1.43 kg/plant and 1.47 kg/plant.

**Q.** And the “Start of flowering earlier than untreated control” value (cucumber; drought)?
**A.** Its value is 14 days.

**Q.** And the “Cucumber seedlings survived after transplanting” value (cucumber; drought, untreated 57%)?
**A.** The value was “More than 80%”.

**Q.** And the “Cucumber fruits per plant in the first harvest” value (cucumber; drought, virtually no fruit from untreated control)?
**A.** Its value is “more than 0.4 kilograms”.

**Q.** What about the “Number of plants with Damage Rating 1” value (pepper; 1 = No damage, 60 plants, SENCOR herbicide, elicitor 20 ppm) of the same molecule?
**A.** Its value is 1.

**Q.** And the “Number of plants with Damage Rating 2” value (pepper; 2 = 0-20% leaves damaged, 60 plants, SENCOR herbicide)?
**A.** The value was 38.

**Q.** And the “Number of plants with Damage Rating 3” value (pepper; 3 = 20-40% leaves damaged, 60 plants, SENCOR herbicide)?
**A.** Its value is 17.

**Q.** And the “Number of plants with Damage Rating 4” value (pepper; 4 = 40-50% leaves damaged, 60 plants, SENCOR herbicide)?
**A.** Its value is 3.

**Q.** What about the “Number of plants with Damage Rating 6” value (pepper; 6 = More than 75% leaves damaged or entire plant dead, 60 plants, SENCOR herbicide) of the same molecule?
**A.** Its value is 0.

**Q.** And the “Plants with only minor damage by the herbicide (damaged leaves less than 20%)” value (pepper; of 60 plants, SENCOR)?
**A.** Its value is “Thirty-nine of the 60”.

**Q.** And the “Number of plants with Damage Rating 5” value (pepper; rating 5 not defined in footnote, 60 plants, SENCOR herbicide)?
**A.** The value was 1.

**Q.** And the “Damage Index %” value (pepper; sum of rating times number of plants, divided by total plants times 6)?
**A.** Its value is 41%.

B2: hypersensitive response elicitor polypeptide or protein derived from Erwinia amylovora: hypersensitive response elicitor protein from Erwinia amylovora, amino acid sequence SEQ. ID. No. 3 (protein, listed as Erwinia amylovora)
chain: B1 Harpin HrpN with S281R, D282H, S360R, A361P
**Q.** With B2 as the molecule, how does the “Time heat stable at 100° C.” value [1] read?
**A.** The value was “at least 10 minutes”.
